Literature values in paper PMC9849996.

Biological target: ROS-GC1 (Bos taurus) (UniProt P55203)
Assay: SPR; given as Ka

UniProt P55203, sequence (P55203 57-1110): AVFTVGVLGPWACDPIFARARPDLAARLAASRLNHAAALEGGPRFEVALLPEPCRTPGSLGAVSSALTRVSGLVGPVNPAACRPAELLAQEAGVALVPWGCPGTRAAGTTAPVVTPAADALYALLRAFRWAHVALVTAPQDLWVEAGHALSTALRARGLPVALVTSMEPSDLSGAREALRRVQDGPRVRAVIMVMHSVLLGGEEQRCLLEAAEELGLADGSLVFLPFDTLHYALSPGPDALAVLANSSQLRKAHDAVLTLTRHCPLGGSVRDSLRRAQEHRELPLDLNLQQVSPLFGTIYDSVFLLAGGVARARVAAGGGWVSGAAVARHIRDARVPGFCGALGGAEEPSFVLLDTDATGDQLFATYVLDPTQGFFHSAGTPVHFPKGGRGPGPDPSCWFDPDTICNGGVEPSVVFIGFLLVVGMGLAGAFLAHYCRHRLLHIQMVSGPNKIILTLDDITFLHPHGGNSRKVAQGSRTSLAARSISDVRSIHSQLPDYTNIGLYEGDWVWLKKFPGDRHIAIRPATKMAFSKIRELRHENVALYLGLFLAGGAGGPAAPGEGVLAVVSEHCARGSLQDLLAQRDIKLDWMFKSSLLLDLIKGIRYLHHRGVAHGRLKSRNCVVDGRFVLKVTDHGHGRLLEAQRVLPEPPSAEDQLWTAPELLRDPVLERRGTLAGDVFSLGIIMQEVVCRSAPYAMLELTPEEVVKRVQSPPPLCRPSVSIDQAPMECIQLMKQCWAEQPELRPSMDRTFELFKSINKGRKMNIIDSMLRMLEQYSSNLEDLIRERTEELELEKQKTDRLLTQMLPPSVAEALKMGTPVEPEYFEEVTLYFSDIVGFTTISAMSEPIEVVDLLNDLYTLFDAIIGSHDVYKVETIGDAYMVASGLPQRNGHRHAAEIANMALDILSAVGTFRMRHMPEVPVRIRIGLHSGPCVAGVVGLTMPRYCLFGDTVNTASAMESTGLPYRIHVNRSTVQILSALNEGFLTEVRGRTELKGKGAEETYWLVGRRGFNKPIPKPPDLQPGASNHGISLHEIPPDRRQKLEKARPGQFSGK

Kd: 0.426 µM
Substance: frequenin (from UniProt Q2V8Y7)
